Results reported in paper PMC11742849.

Each substance was assayed against recombinant mouse TfR extracellular domain protein (UniProt Q62351) (assay: ELISA). Conditions: ligand concentration 20 nM (est. from x axis); mTfR coated on plate; signal normalized to each construct's own maximum; parent: est. 78; read off a plot.
UniProt Q62351, sequence (Q62351 89-763): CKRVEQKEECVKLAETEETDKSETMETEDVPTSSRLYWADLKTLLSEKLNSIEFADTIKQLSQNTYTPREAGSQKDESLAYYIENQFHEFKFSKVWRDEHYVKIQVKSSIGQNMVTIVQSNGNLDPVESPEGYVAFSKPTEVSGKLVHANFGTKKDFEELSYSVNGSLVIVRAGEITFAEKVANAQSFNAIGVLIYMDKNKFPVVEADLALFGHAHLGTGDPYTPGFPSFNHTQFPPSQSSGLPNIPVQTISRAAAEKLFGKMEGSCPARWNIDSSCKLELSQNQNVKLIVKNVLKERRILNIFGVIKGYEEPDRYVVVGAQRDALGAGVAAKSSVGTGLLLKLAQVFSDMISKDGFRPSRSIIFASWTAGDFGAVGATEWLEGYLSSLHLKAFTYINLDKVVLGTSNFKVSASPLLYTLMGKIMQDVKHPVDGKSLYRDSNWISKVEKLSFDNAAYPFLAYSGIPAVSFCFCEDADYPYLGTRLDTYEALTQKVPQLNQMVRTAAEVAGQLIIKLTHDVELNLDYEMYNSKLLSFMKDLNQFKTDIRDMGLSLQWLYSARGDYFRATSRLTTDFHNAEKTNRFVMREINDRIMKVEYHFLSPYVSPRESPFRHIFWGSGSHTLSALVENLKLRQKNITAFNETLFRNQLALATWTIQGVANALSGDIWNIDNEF

response (% of own maximum OD450)	Substance
17	scFc-scFv8D3 H102A
39	scFc-scFv8D3 S101A
26	scFc-scFv8D3 T100V
24	scFc-scFv8D3 Y103F
